This note sets out measurements from patent US20130115677.

Numbering of substitutions follows the chain as printed.

What all share (experiment): cleavage_in_vitro
Data set [1] deals with T1, PstI-HF D91A (Providencia stuartii 164) (UniProt P00640).
T1 sequence: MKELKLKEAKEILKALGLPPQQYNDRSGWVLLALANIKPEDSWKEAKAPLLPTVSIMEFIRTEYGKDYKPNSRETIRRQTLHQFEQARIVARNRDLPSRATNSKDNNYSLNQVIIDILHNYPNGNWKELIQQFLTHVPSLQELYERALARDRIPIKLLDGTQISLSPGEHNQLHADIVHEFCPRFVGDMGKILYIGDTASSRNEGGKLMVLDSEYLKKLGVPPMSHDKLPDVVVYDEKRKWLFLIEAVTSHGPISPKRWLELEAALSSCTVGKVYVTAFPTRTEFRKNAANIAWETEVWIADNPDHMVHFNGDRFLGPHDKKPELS
To be noted: NEB4, 37 C, Mg2+.

For data set [2], the system named is T2, NcoI (Nocardia corallina).
T2 sequence: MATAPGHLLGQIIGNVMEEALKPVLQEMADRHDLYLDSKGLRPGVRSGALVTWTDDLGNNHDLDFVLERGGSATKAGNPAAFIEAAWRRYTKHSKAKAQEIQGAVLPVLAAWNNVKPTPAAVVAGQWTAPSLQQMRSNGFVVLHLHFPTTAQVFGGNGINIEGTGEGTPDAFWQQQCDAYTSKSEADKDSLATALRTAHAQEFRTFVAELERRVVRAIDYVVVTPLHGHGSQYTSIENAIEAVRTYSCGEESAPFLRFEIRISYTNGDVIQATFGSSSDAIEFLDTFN
As to conditions: NEB4, 37 C, Mg2+.

Data set [3] has as its system T3, SbfI-HF K251A (Streptomyces species Bf-61?).
T3 sequence: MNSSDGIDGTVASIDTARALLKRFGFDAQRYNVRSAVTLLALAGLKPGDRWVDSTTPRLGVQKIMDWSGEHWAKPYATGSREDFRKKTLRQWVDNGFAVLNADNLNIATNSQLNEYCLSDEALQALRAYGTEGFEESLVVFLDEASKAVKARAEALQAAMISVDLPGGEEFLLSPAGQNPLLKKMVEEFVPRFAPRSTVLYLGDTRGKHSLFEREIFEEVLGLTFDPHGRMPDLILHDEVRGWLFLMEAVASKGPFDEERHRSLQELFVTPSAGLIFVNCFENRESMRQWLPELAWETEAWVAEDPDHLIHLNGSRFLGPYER
As to conditions: NEB4, 37 C, Mg2+.

Data set [4] has as its system T4, SbfI (Streptomyces species Bf-61?).
T4 sequence: T3 sequence with A251K
As to conditions: NEB4, 37 C, Mg2+.

Data set [5] relates to T5, BsmBI-HF N185Y/R232A (Bacillus stearothermophilus).
T5 sequence: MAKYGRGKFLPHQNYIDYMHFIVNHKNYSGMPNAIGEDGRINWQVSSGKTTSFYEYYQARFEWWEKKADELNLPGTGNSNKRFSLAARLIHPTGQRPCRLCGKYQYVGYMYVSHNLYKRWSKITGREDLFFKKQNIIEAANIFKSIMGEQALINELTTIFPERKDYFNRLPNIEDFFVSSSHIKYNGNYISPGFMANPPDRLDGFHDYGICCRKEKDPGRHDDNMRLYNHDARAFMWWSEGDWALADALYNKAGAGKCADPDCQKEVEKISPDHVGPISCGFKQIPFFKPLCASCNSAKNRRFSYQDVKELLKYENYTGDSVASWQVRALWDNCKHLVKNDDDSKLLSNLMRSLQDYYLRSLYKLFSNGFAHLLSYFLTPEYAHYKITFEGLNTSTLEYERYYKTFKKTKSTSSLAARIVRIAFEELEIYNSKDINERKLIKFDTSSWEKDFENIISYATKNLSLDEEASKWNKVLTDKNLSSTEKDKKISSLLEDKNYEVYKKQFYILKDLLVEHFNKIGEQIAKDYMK
To be noted: NEB4, 55 C, Mg2+.

Another data set has as its system BstXI-HF N65A. As to conditions: NEB4, 55 C, Mg2+.
The test system of data set [6] is T6, SphI (Streptomyces phaeochromogenes).
T6 sequence: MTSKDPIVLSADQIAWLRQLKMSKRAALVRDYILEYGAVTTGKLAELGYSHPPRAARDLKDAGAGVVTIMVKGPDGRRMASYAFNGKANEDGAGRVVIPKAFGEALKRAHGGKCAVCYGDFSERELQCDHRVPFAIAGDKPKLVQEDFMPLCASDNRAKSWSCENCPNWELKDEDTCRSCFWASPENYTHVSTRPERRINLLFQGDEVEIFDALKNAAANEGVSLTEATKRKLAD
As to conditions: NEB4, 37 C, Mg2+.

Data set [7] has as its target EcoRI (Escherichia coli RY13) (UniProt P00642). To be noted: NEB4, 37 C, Mg2+; 250 in NEB1 and NEB3.
The target in data set [8] is EcoRI-HF K62E (Escherichia coli RY13) (UniProt P00642). As to conditions: NEB4, 37 C, Mg2+.
The target in data set [9] is T7, PstI (Providencia stuartii 164) (UniProt P00640).
T7 sequence: T1 sequence with A91D
To be noted: NEB4, 37 C, Mg2+.

Data set [10] deals with T8, SspI-HF Y98F (Sphaerotilus species).
T8 sequence: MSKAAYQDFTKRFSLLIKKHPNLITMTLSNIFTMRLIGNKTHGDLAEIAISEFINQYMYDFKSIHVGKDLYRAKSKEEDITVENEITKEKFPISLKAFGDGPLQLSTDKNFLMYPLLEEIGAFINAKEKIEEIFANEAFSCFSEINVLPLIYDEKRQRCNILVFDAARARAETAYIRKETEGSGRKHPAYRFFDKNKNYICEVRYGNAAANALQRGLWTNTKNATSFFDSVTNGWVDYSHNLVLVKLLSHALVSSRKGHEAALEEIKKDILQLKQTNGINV
As to conditions: NEB4, 37 C, Mg2+.

With lambda DNA, the activity (fidelity index) is 4000 in [1]; 32 in [2]; 250 in [3]; 8 in data set [4]; greater than 500 in data set [5]; greater than 250 in the data set on BstXI-HF N65A. Moreover, the activity (fidelity index) in data set [6] was determined as 16; in data set [7], 4; in data set [8], 16000; in data set [9], 8; in data set [10], 500.
